# Measurements reported in publication PMC10132805.
# How the values were obtained:
# [1] = target: FITC - UL56 46-55 (HHV2) (Human herpesvirus 2 (strain HG52) (HHV-2))
# [2] = target: FITC - ARRB2 370-379 (Human) (Homo Sapiens)
# [3] = target: centrosomal protein of 55 kDa EABR domain (CEP55 EABR) (human) (UniProt Q53EZ4)
# [4] = target: C terminal domain of polyadenylate-binding protein 1 (human) (UniProt P11940)
# [5] = target: N-terminal domain of clathrin (CLTC NTD) (human) (UniProt Q00610)
# Sequence of N-terminal domain of clathrin (CLTC NTD) (human) (Q00610 whole entry, the tested form may be a part): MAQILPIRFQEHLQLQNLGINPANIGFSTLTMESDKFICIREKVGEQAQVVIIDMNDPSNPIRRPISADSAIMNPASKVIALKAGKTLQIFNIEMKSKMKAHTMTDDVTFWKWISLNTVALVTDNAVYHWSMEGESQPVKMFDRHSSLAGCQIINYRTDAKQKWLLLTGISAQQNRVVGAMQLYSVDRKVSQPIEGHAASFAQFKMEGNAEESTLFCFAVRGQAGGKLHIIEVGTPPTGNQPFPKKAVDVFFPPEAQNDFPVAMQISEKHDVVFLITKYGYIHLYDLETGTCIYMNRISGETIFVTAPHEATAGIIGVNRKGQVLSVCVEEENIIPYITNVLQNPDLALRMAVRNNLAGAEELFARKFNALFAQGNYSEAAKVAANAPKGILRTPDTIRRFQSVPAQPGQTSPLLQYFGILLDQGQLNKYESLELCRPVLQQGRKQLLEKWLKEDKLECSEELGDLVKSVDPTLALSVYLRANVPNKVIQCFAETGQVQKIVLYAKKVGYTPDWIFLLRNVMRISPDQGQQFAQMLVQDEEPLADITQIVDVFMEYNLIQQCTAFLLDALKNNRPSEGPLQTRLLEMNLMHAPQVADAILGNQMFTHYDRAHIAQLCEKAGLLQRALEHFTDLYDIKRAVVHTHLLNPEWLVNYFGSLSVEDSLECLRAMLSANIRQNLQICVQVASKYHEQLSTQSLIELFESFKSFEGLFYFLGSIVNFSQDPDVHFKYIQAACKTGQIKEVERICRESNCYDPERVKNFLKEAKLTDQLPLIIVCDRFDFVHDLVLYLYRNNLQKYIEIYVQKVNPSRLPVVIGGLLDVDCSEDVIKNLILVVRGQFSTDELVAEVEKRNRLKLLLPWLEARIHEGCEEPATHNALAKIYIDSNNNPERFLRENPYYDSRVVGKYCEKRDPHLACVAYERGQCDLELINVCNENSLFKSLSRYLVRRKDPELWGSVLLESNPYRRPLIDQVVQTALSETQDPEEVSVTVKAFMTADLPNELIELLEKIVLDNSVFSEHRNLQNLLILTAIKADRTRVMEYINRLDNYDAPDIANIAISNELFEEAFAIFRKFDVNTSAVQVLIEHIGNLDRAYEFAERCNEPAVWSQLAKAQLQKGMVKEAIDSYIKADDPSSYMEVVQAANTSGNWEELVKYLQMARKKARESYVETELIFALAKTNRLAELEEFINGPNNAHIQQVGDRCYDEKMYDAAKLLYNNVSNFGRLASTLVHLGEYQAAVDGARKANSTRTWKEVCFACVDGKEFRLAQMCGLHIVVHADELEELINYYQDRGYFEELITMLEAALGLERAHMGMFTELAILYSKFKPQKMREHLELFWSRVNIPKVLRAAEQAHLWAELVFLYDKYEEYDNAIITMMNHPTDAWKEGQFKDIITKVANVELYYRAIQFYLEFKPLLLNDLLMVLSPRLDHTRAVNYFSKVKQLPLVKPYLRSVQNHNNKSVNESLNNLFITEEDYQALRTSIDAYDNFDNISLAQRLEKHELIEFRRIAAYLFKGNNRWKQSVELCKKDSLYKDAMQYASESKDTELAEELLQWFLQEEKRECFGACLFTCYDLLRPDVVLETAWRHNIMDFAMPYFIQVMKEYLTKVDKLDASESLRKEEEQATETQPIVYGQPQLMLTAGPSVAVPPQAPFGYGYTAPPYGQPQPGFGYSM
# [6] = target: V domain of programmed cell death 6-interacting protein (ALIX V) (human) (UniProt Q8WUM4)
# Sequence of V domain of programmed cell death 6-interacting protein (ALIX V) (human) (Q8WUM4 whole entry): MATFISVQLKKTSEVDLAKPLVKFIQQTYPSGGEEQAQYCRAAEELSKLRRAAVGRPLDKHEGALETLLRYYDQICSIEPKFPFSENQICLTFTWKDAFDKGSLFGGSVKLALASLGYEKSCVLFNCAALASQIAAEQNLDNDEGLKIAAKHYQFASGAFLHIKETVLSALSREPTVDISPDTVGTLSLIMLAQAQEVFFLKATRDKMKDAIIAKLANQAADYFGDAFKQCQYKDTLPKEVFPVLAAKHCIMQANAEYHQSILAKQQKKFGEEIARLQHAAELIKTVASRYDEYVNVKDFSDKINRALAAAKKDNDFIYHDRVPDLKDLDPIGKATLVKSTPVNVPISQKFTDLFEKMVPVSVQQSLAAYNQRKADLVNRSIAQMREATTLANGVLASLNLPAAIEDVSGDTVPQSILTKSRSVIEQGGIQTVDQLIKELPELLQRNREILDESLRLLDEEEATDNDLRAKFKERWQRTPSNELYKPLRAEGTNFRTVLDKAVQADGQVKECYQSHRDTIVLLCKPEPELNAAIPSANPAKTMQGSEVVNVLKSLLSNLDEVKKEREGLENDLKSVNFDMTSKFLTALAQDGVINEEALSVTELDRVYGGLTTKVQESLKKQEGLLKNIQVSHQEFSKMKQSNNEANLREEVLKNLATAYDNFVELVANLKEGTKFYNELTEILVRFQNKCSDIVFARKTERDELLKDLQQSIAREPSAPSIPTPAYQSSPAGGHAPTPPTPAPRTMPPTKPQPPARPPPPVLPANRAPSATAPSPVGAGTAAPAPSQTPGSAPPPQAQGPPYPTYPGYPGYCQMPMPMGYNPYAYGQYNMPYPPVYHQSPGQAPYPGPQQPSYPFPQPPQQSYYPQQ
# [7] = target: programmed cell death 6-interacting protein (ALIX) V domain (human)
# [8] = target: FITC - gag 493-502 (HIV1) (Human immunodeficiency virus type 1 group N (isolate YBF30) (HIV-1))
# [9] = target: E3 ubiquitin-protein ligase NEDD4 WW2 domain (human)
# Sequence of E3 ubiquitin-protein ligase NEDD4 WW2 domain (human) (P46934 whole entry, the tested form may be a part): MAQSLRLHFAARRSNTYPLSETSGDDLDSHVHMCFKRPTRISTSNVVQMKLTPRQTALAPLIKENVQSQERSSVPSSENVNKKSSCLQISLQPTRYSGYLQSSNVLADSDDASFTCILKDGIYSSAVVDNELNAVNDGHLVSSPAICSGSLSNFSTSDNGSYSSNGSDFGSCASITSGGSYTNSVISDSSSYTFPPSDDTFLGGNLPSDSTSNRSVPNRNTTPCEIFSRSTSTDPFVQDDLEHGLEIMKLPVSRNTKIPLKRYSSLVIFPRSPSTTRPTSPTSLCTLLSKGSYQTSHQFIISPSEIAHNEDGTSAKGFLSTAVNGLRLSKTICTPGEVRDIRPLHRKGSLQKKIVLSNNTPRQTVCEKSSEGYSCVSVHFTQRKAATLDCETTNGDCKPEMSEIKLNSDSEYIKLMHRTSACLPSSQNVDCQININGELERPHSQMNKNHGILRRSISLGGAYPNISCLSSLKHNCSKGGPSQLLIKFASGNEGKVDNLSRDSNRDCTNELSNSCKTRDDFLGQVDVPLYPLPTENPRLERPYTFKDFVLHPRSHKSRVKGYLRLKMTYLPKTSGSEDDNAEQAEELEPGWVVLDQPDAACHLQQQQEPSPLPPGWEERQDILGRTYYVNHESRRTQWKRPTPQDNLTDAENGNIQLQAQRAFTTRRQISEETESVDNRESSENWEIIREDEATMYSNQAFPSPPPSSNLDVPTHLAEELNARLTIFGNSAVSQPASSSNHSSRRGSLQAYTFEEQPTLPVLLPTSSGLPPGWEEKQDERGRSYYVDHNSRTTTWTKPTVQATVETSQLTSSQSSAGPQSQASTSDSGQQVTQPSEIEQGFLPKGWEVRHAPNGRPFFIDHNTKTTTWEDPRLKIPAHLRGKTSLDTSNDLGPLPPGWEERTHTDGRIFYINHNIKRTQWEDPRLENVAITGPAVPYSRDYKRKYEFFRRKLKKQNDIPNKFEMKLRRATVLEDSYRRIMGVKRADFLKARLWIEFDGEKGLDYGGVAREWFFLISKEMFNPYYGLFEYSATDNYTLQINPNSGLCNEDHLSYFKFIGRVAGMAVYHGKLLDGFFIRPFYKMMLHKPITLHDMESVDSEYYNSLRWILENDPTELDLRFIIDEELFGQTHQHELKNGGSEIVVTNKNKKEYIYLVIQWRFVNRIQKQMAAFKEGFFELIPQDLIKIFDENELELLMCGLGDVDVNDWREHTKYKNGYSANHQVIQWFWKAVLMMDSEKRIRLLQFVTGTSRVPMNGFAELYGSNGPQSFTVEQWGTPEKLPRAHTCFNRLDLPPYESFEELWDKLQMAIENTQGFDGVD
# [10] = target: E3 ubiquitin-protein ligase NEDD4 WW4 domain (human)
# Sequence of E3 ubiquitin-protein ligase NEDD4 WW4 domain (human) (P46934 whole entry, the tested form may be a part): as above
# [11] = target: FITC - PDCD6IP 797-809 (Human) (Homo Sapiens)
# Sequence of centrosomal protein of 55 kDa EABR domain (CEP55 EABR) (human) (Q53EZ4 whole entry, the tested form may be a part): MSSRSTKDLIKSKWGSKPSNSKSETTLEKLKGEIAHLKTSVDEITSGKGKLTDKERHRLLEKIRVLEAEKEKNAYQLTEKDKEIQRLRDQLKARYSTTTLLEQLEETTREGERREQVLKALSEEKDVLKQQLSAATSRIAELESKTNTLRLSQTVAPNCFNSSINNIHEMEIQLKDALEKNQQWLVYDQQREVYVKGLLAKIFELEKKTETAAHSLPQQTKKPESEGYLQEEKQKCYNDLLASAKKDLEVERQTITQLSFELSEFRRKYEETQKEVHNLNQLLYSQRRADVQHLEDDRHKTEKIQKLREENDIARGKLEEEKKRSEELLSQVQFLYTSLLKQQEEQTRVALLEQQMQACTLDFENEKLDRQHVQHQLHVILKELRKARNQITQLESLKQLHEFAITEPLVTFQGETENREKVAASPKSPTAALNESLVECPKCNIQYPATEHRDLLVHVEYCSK
# Sequence of C terminal domain of polyadenylate-binding protein 1 (human) (P11940 544-623): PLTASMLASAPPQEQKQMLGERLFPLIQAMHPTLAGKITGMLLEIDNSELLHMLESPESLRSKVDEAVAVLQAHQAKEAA
substance,measurement,setting,value
E3 ubiquitin-protein ligase NEDD4 WW2 domain (domain or fragment),Kd,[1],16 µM
E3 ubiquitin-protein ligase NEDD4 WW4 domain (domain or fragment),Kd,[1],82 µM
N-terminal domain of clathrin (CLTC NTD) (from UniProt Q00610 1-1675) (domain or fragment),Kd,[2],26 µM
NP 602-617 (REBOV) (peptide),Kd,[3],2.18 µM
N_(2-17) (BeV) peptide,fold weaker affinity than PAIP2(108-123),[4],10 fold
Nsp3 1765-1780 (EEEV) (peptide),Kd,[5],28 µM
Nsp4 118-142 (BAV) (peptide),Kd,[6],160 µM
Nsp4 119-134 (BAV) (peptide),Kd,[6],101 µM
Nsp4_(118-142) (BAV) peptide,fold weaker affinity than the syntenin-2 peptide,[7],> 300 fold
P 177-192 (RABV) (peptide),Kd,[3],22.3 µM
RdRp 1840-1855 (SVV) (peptide),Kd,[5],800 µM
V domain of programmed cell death 6-interacting protein (ALIX V) (from UniProt Q8WUM4 1-868) (domain or fragment),Kd,[8],2.6 µM
VP40 1-20 (SEBOV) (peptide),Kd,[9],22 µM
same,Kd,[10],68 µM
centrosomal protein of 55 kDa EABR domain (CEP55 EABR) (from UniProt Q53EZ4 1-464) (domain or fragment),Kd,[11],0.31 µM
mu-NS 705-720 (MRV1) (peptide),Kd,[5],34 µM
